Measured values from patent US20130108613.

What was measured:
[1] = target: monomeric synthetic human Aβ1-42 peptide
[2] = target: oligomeric synthetic human Aβ1-42 preparation

B1: recombinant NIa (nuclear inclusion a) protease of Turnip mosaic virus (TuMV), purified from E. coli (protein)
chain: SNSMFRGLRDYNPISNNICHLTNVSDGASNSLYGVGFGPLILTNRHLFERNNGELVIKSRHGEFVIKNTTQLHLLPIPDRDLLLIRLPKDIPPFPQKLGFRQPEKGERICMVGSNFQTKSITSVVSETSTIMPVENSQFWKHWISTKDGQCGSPMVSTKDGKILGLHSLANFQNSINYFAAFPDDFAEKYLHTIEAHEWVKHWKYNTSAISWGSLNIQASQPSGLFKVSKLISDLDSTAVYAQ
[1]
  reduction of monomeric Aβ level, densitometry of Western blot (6E10), 3 hrs at 25 °C, without NEM: NIa reduced Aβ levels by 64% in the absence of NEM
[2]
  oligomeric Aβ level with NIa pre-incubated with NEM, Western blot (6E10): This NIa-mediated reduction of oligomeric Aβ was significantly blocked by NEM
  oligomeric Aβ remaining after 3 hrs with NIa, densitometry of Western blot (6E10), relative to Aβ only: only 19% of oligomeric Aβ remained
